From patent publication US20020115140A1 come the findings set out here.

In this experiment the target is GPA1 protein (yeast) (UniProt P08539). Briefly: cell-based or functional assay.
UniProt P08539, sequence (P08539 2-472 limits assumed): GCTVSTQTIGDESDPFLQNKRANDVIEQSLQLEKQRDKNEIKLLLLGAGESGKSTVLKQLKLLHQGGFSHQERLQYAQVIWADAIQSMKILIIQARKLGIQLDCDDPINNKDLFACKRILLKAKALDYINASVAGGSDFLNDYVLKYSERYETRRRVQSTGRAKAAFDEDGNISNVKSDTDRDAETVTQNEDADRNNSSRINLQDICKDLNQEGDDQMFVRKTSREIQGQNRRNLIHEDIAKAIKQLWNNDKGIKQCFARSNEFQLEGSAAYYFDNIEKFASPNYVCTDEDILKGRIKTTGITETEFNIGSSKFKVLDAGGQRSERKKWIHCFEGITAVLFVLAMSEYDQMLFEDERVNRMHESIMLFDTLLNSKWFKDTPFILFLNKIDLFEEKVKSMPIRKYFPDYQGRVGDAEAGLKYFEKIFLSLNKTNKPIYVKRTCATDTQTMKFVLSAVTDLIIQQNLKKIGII

“murine RATH1.1 gene product (from UniProt P97428 1-201)” gave a diameter of growth inhibition zone; strain MY169 (sst2-, RATH1.1 under ADH2 promoter); 1 µg alpha factor of 0.8 cm; a diameter of growth inhibition zone; strain MY169 (sst2-, RATH1.1 under ADH2 promoter); 10 µg alpha factor of 1.8 cm; a diameter of growth inhibition zone; strain MY173 (SST2+, RATH1.1 under ADH2 promoter); 10 µg alpha factor of 1.6 cm.
